The experiment has as its target monomeric SARS-CoV-2 receptor binding domain (RBD) (SARS-CoV-2, UniProt P0DTC2). The experiment is described as follows: ELISA. Background: ELISA stands for enzyme-linked immunosorbent assay.

The values below come from doi:10.1101/2021.02.17.431492 (bioRxiv, 2021).

B1: DH1041 (ACE2 binding site-targeting RBD neutralizing antibody) (antibody, V domains shown)
VH: EVQLVESGGGLVQPGGSLRLSCAASGVTFSSYWMSWVRQAPGKGLEWVANIRQDGSEKYSVDSVKGRFTISRDNAKNSLYLQMNSLRAEDTAVYYCARARRADNSGYYGFHFDCWGQGTLVTVSS
VL: QSVLTQPPSVSGAPGQRVTISCTGSSSNIGAGYDVHWYQQLPGTAPKLLIYGNNNRPSGVPDRFSDSKSGTSASLAITRLQAEDEADYYCQSYDSSLSGWVFGGGTKLTVL
On to B1, for which the binding result is “binds”.
